Data from patent US9375425B2, “Combination of a C-Met antagonist and an aminoheteroaryl compound for the treatment of cancer” (Pierre Fabre Medicament, priority 2008, dated 2016).
Where two headings read alike, the source gives them in different places.

Assays:
NCI-H441 NSCLC = experiment: In vivo activity of 224G11 and PF-02341066 as single treatments, NCI-H441 s.c. xenograft; conditions: NCI-H441 s.c. in Athymic nude mice; for tumors growth of treated mice (FIG. 1): 224G11 i.p. 2 mg loading dose then 1 mg twice a week, PF-02341066 50 mg/kg p.o.; for antitumoral activity, single treatments compared with each other: same regimens
Description: In order to verify that the NCI-H441 in vivo model available in the laboratory is sensible to both the 224G11 antibody and the PF-2341066 compound, immunocompromised mice engrafted subcutaneously with NCI-H441 were used. Briefly, NCI-H441 NSCLC cells from ATCC were cultured in RPMI 1640 medium, 10% FCS, 1% L-Glutamine. Cells were split two days before engraftment so that they were in exponential phase of growth. Ten million NCI-H441 cells were injected s.c. to Athymic nude mice. […] For the antibody treatment, mice were treated i.p. with a loading dose of 2 mg of 224G11 Mab/mouse and then twice a week with 1 mg of antibody/mouse. 50 mg/kg of PF-02341066 was administered p.o. (oral gavage), daily for a week and then 5 days a week with a double dose the fifth day. Treatment lasted during the whole experiment. Tumor volume was measured twice a week and calculated by the formula: π/6×length×width×height.

NCI-H441 cells = experiment: In vivo activity of a combination of 224G11 and PF-02341066, NCI-H441 xenograft; set-up: species or system Athymic nude mice; conditions: day 53 post first injection; 224G11 i.p. 2 mg then 1 mg twice a week; PF-2341066 50 mg/kg p.o.
Description: NCI-H441 cells from ATCC were routinely cultured in RPMI 1640 medium, 10% FCS, 1% L-Glutamine. Cells were split two days before engraftment so that they were in exponential phase of growth. Ten million NCI-H441 cells were engrafted to Athymic nude mice. […] For the antibody treatment, mice were treated i.p. with a loading dose of 2 mg of 224G11 Mab/mouse and then twice a week with 1 mg of antibody/mouse. 50 mg/kg of PF-2341066 was administered p.o. (oral gavage), daily for a week and then 5 days a week with a double dose the fifth day. The group of mice receiving both 224G11 and PF-2341066 was treated following the same modalities as the one described above for each compound. Tumor volume was measured twice a week and calculated by the formula: […]×length×width×height and animal weights were monitored every day over the period of treatment.
Statistical analysis was performed at each measured time using a Mann-Whitney test. In this experiment, mice of the control group were sacrificed on day 53 for ethical reasons. At day 53 post first injection, the average tumor volume of single modality treated groups is reduced by 64%, 73% and 93% for 224G11, PF-2341066 and 224G11+PF-2341066 respectively. […] No significant differences were observed between the 2 single modality treatment.

c-Met mutations = conditions: cited from earlier work
c-Met = c-Met (Homo sapiens, UniProt P08581); experiment: Inhibition of c-Met dimerization by the antibodies
[1] = In vivo activity of the anti-c-Met antibodies

Chain of c-Met (P08581 25-1390): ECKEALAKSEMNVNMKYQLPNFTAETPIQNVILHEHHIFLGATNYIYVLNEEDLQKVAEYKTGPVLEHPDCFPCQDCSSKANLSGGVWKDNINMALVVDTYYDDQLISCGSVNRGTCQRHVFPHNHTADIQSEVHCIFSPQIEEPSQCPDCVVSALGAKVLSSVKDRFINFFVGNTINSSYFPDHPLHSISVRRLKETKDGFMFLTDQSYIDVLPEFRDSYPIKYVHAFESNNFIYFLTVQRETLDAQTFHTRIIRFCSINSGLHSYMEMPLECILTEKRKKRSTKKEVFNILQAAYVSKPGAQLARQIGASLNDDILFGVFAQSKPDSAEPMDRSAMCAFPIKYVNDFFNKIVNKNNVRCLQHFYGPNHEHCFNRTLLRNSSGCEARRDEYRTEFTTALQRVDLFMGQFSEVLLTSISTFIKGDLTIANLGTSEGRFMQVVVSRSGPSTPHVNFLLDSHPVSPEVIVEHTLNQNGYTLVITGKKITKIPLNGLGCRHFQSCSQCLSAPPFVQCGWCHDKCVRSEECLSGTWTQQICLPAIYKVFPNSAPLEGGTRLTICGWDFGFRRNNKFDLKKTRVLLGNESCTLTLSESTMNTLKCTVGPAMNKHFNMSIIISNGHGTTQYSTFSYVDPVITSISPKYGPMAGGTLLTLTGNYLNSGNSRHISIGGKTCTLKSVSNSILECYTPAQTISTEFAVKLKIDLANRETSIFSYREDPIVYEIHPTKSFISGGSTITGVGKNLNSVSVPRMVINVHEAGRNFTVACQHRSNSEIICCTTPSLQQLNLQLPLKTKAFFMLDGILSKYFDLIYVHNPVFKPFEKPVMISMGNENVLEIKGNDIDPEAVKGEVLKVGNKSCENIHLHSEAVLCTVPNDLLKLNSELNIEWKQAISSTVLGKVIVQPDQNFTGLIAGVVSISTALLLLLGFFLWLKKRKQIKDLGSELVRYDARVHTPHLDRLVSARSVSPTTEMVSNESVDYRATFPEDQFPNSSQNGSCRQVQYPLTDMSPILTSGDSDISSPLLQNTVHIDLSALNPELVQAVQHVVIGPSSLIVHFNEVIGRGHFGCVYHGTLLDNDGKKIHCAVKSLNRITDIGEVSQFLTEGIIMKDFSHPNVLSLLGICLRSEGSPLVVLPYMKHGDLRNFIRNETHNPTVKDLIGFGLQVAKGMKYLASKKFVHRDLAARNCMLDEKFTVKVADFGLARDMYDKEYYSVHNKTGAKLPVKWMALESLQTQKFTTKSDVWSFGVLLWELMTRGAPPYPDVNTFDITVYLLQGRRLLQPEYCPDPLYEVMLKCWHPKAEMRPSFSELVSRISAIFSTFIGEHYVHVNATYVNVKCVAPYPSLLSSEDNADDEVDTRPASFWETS

Row | c-Met dimerization (c-Met) | Molecule | tumors growth of treated mice (FIG. 1) (NCI-H441 NSCLC) | antitumoral activity, single treatments compared with each other (NCI-H441 NSCLC) | average tumor volume reduced by (NCI-H441 cells) [%] | activity in vivo [1] | also measured
1 | – | C[C@@H](Oc1cc(-c2cnn(C3CCNCC3)c2)cnc1N)c1c(Cl)ccc(F)c1Cl [PF-02341066, 3-[(R)-1-(2,6-Dichloro-3-fluoro-phenyl)-ethoxy]-5-(1-piperidin-4-yl-1H-pyrazol-4-yl)-pyridin-2-ylamine, reference compound] | significant difference in tumors growth | comparable antitumoral activities | 73 | – | –
2 | – | Cc1[nH]c(/C=C2\C(=O)Nc3ccc(S(=O)(=O)N(C)c4cccc(Cl)c4)cc32)c(C)c1C(=O)N1CCN(C)CC1 [SU11274] | – | – | – | – | sensitivity of c-Met mutation to the agent (c-Met mutations; H1112Y mutation, decreased cell growth and motility): sensitive; sensitivity of c-Met mutation to the agent (c-Met mutations; L1213V mutation): resistant; sensitivity of c-Met mutation to the agent (c-Met mutations; M1268T mutation, decreased cell growth and motility): sensitive; sensitivity of c-Met mutation to the agent (c-Met mutations; Y1248 mutation): resistant
3 | inhibit the c-Met dimerization | 223C4: monoclonal antibody antagonist to c-Met, hybridoma CNCM I-3786; heavy chain SEQ ID No. 20, light chain SEQ ID No. 23 (antibody, V domains shown, mus musculus) VH: EVLLQQSGPELVKPGASVKIPCKASGYTFTDYNMDWVKQSHGMSLEWIGDINPNNGGTIFNQKFKGKATLTVDKSSSTAYMELRSLTSEDTAVYYCARGRYVGYYYAMDYWGQGTSVTVSS VL: DIQMTQSPASLSVSVGETVTITCRASENIYSNLAWYQQKQGKSPQLLVYAATNLVDGVPSRFSGSGSGTQYSLKINSLQSEDFGSYYCQHFWGPPYTFGGGTKLEIK | – | – | – | active in vivo | –
4 | inhibit the c-Met dimerization | 11E1: monoclonal antibody antagonist to c-Met, hybridoma CNCM I-3724; heavy chain SEQ ID No. 53, light chain SEQ ID No. 54 (antibody, V domains shown, mus musculus) VH: QVQLQQSGAELAKPGASVKMSCKASGYTFTSYWMNWVKQRPGQGLEWIGYINPTTGSTDYNQKLKDKATLTADKSSNTAYMQLSSLTSEDSAVYYCAIGGYGSWFAYWGQGTLVTVSA VL: QIVLTQSPAIMSASPGEKVTLTCSASSSVSSTYLYWYQQKPGSSPKLWIYTTSILASGVPARFSGSGSGTSYSLTISSMETEDAASYFCHQWSSYPFTFGSGTKLDIK | – | – | – | active in vivo | –
5 | inhibit the c-Met dimerization | 224G11: monoclonal antibody antagonist to c-Met secreted by murine hybridoma CNCM I-3731; heavy chain SEQ ID No. 18, light chain SEQ ID No. 21 (antibody, V domains shown, mus musculus) VH: EVQLQQSGPELVKPGASVKISCKTSGYIFTAYTMHWVRQSLGESLDWIGGIKPNNGLANYNQKFKGKATLTVDKSSSTAYMDLRSLTSEDSAVYYCARSEITTEFDYWGQGTALTVSS VL: DIVLTQSPASLAVSLGQRATISCRASESVDSYANSFMHWYQQKPGQPPKLLIYRASNLESGIPARFSGSGSRTDFTLTINPVEADDVATYYCQQSKEDPLTFGSGTKLEMK | significant difference in tumors growth | comparable antitumoral activities | 64 | active in vivo | –
6 | inhibit the c-Met dimerization | 227H1: monoclonal antibody antagonist to c-Met, hybridoma CNCM I-3732; heavy chain SEQ ID No. 19, light chain SEQ ID No. 22 (antibody, V domains shown, mus musculus) VH: EVQLQQSGPELVKPGASMKISCKASGYSFTDYTLNWVKQSHGKTLEWIGLINPYNGGTTYNQKFKGKATLTVDKSSSTAYMELLSLTSEDSAVYYCAREEITKDFDFWGQGTTLTVSS VL: GIVLTQSPASLAVSLGQRATISCRVSESIDTYGNSFIHWYQQKPGQPPKLLIYRASNLESGIPARFSGSGSRTDFTLTINPVEADDSATYYCQQSNEDPFTFGSGTKLEMK | – | – | – | active in vivo | –
